The record followed here is the DeepSol protein solubility set.

The nature of this data set: soluble on expression in E. coli; label from the status in PepcDB or PDB records.
Turning to “MGSDKIHHHHHHMIPDKSVEILLGELSRDIAQRTPGTGDFPTAVEGLELFRRNEPAPPVSCLVPPSIVLVADGAKIMWVGGEPYEYNAEKFLITSLDLPASSEILQASTSQPCVGVAYKLDQRVLMELIAQGSLPPVKKRDAGTSVGIGTITDALLEPFCRLLSLLDEPEAIPVLGPLIQREIHYRLLMSDQSDHLRQIAAVDGHGYRIGKAIDWLKTNIASPLRVEELASRVQMSTPSFHHHFRQLAGMSPLRYQKWLRLNEARRLMLNEHYDVTTAAYAVGYESLSHFSREYTRMFGESPKRDITELRKSAGKL”, the “soluble on expression in E. coli” value is recorded as “not soluble”. In the case of “MNVNAETEDATLLLDGLLQNVAIIRFDTNKKVTYANALFAEAMGYTEEEMLQLSHPDLCFPDFVQTASYKEMWTNLLAGQKFQNKIERKNARGERVWFEATYIPIIREETVVGVAKIATDIT” it was “not soluble”. In the case of “MTEFDNLTWLHGKPQGSGLLKANPEDFVVVEDLGFTPDGEGEHILLRILKNGCNTRFVADALAKFLKIHAREVSFAGQKDKHAVTEQWLCARVPGKEMPDFSAFQLEGCKVLEYARHKRKLRLGALKGNAFTLVLREISDRRDVETRLQAIRDGGVPNYFGAQRFGIGGSNLQGALRWAQSNAPVRDRNKRSFWLSAARSALFNQIVHQRLKKPDFNQVVDGDALQLAGRGSWFVATSEELPELQRRVDEKELMITASLPGSGEWGTQRAALAFEQDAIAQETVLQSLLLREKVEASRRAMLLYPQQLSWNWWDDVTVELRFWLPAGSFATSVVRELINTMGDYAHIAE” it was “not soluble”; in that of “MVLFDQATYEKLLIEAPKFKLITPSILSDRMRVYICIYLLISYSRNDSYIIWQ”, “not soluble”; in that of “MGSDKIHHHHHHMSAPTPLAEASQIPTIPALSPLTAKQSKGNFFSSNPISSFVVDTYKQLHSHRQSLELVNPGTVENLNKEVSRDVFLSQYFFTGLRADLNKAFSMNPAFQTSHTFSIGSQALPKYAFSALFANDNLFAQGNIDNDLSVSGRLNYGWDKKNISKVNLQISDGQPTMCQLEQDYQASDFSVNVKTLNPSFSEKGEFTGVAVASFLQSVTPQLALGLETLYSRTDGSAPGDAGVSYLTRYVSKKQDWIFSGQLQANGALIASLWRKVAQNVEAGIETTLQAGMVPITDPLMGTPIGIQPTVEGSTTIGAKYEYRQSVYRGTLDSNGKVACFLERKVLPTLSVLFCGEIDHFKNDTKIGCGLQFETAGNQELLMLQQGLDADGNPLQALPQL”, “not soluble”.

As to “MSLVTQQALPPVVSSAASPSPQASAPLPTDKTAIAIVLQGFGYSDALTYDVLSRIPAPVAVGISPYVSNISDIIARAHASHREVYVTLPMQSAHPERVDEGPHALGYGNSAADDQRELEWCLSRAAGAEGLTDASENGDDQPGGGYATSPDFSPIASAISSKGLLYLAGSAQDGRRTRGMTATAWIDGDTDAATLDSRLAALLPQDGKPAKILLMVGPITPVMIDRLANWLKGPAAQNFVVVPPSAFADSGISNDQAANLSPSNPVAPLEGHHHHHH”, the “soluble on expression in E. coli” value is listed as “soluble”. “MSLSGIYERLQSLESLDLKSLDKNRTMLLIVDINKGFAKEGALYSDRIEKLISPISNLANYALNSGIRVKAFTDYHTEDSIELKAYPKHCMKDTDEWELVDELNLEGIEVIKKNSTNGFLEENFILNKEEIDNVIIVGDCTDICIYQLAISLRAEFNRVNKDGEIYVPKKLVDTFDMPMHKANFMNYVFLNSMLDNGVKVIEDIILDEGHHHHHH”: the “soluble on expression in E. coli” value is “soluble”. Regarding “MGSDKIHHHHHHMERVLIIGALTFVGYHLVNKMIAEEVEVYGLDFDEFDSMTKINEEKLLLIGRNALFTYYSIRDEDGWRSVEEEKFDAVYFCLYEPNQQRGFRNERVILQYLKRMIRLCEEHKVKLNLISSIEVGNADESENKRLFSKVEEGLKKGEVQYSVFRVPTLYGPWQPSFMMYHQLMLSELGEKECHYAGEENGSDLLYVEDVCEYLWENGMNEEHLGIYNLLSGKKSLWKKGMNLLRAEDKVNKENAEERDGAAEDILIKRNTPLEYGLNKQLAHMKKYKELYEG”, the “soluble on expression in E. coli” value is “not soluble”.

“MAHHHHHHMAYGDDSKIVEGIVGERNIYKRREESTETNPFQSKHKKRLLFVLDVSASMYRFEGMDHRLSKLLESTVMVMEAFAGFEEKIDYAMVGHNGDSACIELVSFGHSPANQKARMEVCQRMVAHAQYCWSGDNTVEAMRQSIDLVTAEKGDAYLVFVISDANLPRYGIQPSELSAIMRSHKEVQMFCIFIATLGEQASNLQAEMPPGHGFECLDTQALPHILKQIFFSVNLL”: the “soluble on expression in E. coli” value is on record as “not soluble”. In the case of “MAHHHHHHMKKSGKGRIKLKIQINTEEEENKENIIYENKNKKRKGSDISDDNDESIEKFKDLDNSYASDRKQKEDNDLEKKIISIISQLTKITCICEDKKNNINNLENEKICKKLIKQMYKYEKYLLQFSNYINENNNHNLDDITFPNGLIKAVDNYINPNVWIYQYLLLETKKQNDSYRNLIQNISTFDSTLKHKILNNDSNHLVNPVYPPLDENLLNSLNNTQQNYYKNVHIPKELSHYYLKSRNKTKED” it was “not soluble”.

As for “SDSASQDINLNSPNKGVLSDFMTDVPVDPGVVHRTPVVEGLTEGEEEELRAELAKVEEEIVTLRQVLAAKERHCGELKRRLGLSTLGELKQNLSRSWHDVQVSTAYVKTSEKLGEWNEKVTQSDLYKKTQETLSQAGQKTSAALSTMGSAISRKLGDMSSYSIRHSISMPVMRNSATFKSFEDRVGTIKSKVVGGRENGSDNLPPSPGSGDQTLPDHAPF”, the “soluble on expression in E. coli” value is listed as “soluble”. For the sequence “MPRINSPHITGNYPSTPFIFYIPTSGQRPMQWSAEKLPEGLELDSKTGIISGVMTSKGDYTVTLKAENALGVSVKQLVIRIGDELLLEHHHHHH”, the “soluble on expression in E. coli” value is reported as “not soluble”. In the case of “MGSDKIHHHHHHMKVLVFDVSAPYALFRRPYTTTSSYTLPFPPRTTLLGLVGCVLGYSTPERLDSAKVAVQIKNPLKFLRTGTNFVETKKDKKASKRTRISLQLLKNPAYRVFFSWEDEDFERLKNLLEHSETIFTPYLGVASFIARLNYVGKYEATRVADFPCEVHTVVPNTVKLLPEPSHYLIFERVTRKMDKERNMLESAVYIFKRDLSPVKVEGGEVWRVGEQNIVWM” it was “not soluble”; in that of “MGSDKIHHHHHHMAITIQFSNYALKTDETLIQRIQFVYSPLNELFRSLHVLLNPRHHGTNIDWVIRIQNKLTKEFYENLHYFRLFYELGVSPILLCNFRYHATTIEEEIQNLKKFLDELSTAQLIEHLEKVTSDRENSFIPTLARGLEWKDFSLNKDNQLLSDLRKDASSVYQHLFSFVDWYRQEIFDETWESKDIQRKLLTEIQHQASFLKESGFKAMFNHLQIDRIHWRKDRLVIIKPFDKDIQLKDSDSIMLLPSYFIWPHLFVESFNQGIAVTYDITEQPSYYNATPENLITIFKALSDPVRLQIMNYVIDKPSTTQSLAQILVMSNSSVSRHLQILKEANLLTTTKAKKFVLYEPTQLITQLMPNFYHFFKN”, “not soluble”; in that of “MGSDKIHHHHHHMLDSLFPIKRNYLDRNGHKLQYVNEGQGEPVVMVHGNPSWSFYYRNLVTALSPNHQCIVPDHIGCGLSDKPDDAGYDYTLKNRIDDLEALLDHLEVKEKITLIVHDWGGMIGMGYAARHPERIKKIVVLNTGAFHLPEAKPFPWALWICRNTLLGTVLVRGFNAFSSIASYVGVKRAPMPKAIREAYVAPFNSWANRISTLRFVQDIPLKPGDRNYELVSEISEKLNQFNQLPMMICWGLKDFVFDKHFLDEWKRRFPEAEVHEFADCGHYILEDASDEVVAQVQQFMAR”, “not soluble”. In the case of “MSLAVLPDVPKSKDMKHRPRFLPSIGPMKKRVAFFSGCLMDTMFLPTNNATLKLLQLAGCDIVIPPEQACCGALHGHSGEKNTGKELAKQNIAAFEALDVDAVITNAGGCGAFLTEYDHLLKDDPEWSERAAAFVQKLKDFSSVLVELDFHQMDLALETPQVVTYQDSCHLRNVMHTSLEPRQLLKSIKGAEFKEMEKADSCCGSAGIYNIVEVEMSMKILDSKMAAVKATEAILIVTANPGCLLQMKLGIEREGLSGKVRAVHLADLLLEAAGHKTSEGHHHHHH” it was “soluble”. As to “MKHSLPDLPYDYADLEPVISHEIMQLHHQKHHATYVNNLNQIEEKLHEAVSKGNVKEAIALQPALKFNGGGHINHSIFWTNLAKDGGEPSAELLTAIKSDFGSLDNLQKQLSASTVAVQGSGWGWLGYCPKGKILKVATCANQDPLEATTGLVPLFGIDVWEHAYYLQYKNVRPDYVNAIWKIANWKNVSERFAKAQQ”, the “soluble on expression in E. coli” value was “soluble”. With “MILLSKQTPLGAGRHRKCYTHPDNARRCIKVIYNRDHGGDKEIRRELSYYAHLSRYLTDWSAIPRYYGTVETDCGTGYVYDMITDFNGAPSITLTEFAAQCRYEEDVAVLRRLLKKLKRYLLDNHIVTMSLKPQNILCQRISESEVVPVVCDNLGESTFIPLATWSTWCCERKLERVWQRFIAQPALAVALERDAQPKDKKRLALTSHEALEHHHHHH” the entry was “not soluble”; with “MKTRVVLILALSVCIEAASEVIRARAYIFKAEAGKIPTELIGTIDFDQSGSFLKLNGSVSGLAAGKHGFHIHEKGDTGNGCLSAGGHYNPHKLSHGAPDDSNRHIGDLGNIESPASGDTLISVSDSLASLSGQYSIIGRSVVIHEKTDDLGRGTSDQSKTTGNAGSRLACGTIGTV”, “not soluble”. As for “MGRQIPPDPVFGDVLVAKLINRVMWDGKKTIAQKIVYGAFDIIREKTKKDPLEVFRQAVENVKPVLEVRPRRVGGATYQVPIEVQEPRRTSLALRWIVEAARAKKGRPMKEKLAEEIIAAYNNTGTAIKKKEDTHRMAEANRAFAHYRW”, the “soluble on expression in E. coli” value was “soluble”. Consider “SALIAALSVSGLPSNRFTFEGFLPAKPTARRDRLTHLAHEPRTLIFYEASHRIAECLTDLATIFGSMRIAVVARELTKIFETVLDGTLATLQTQVANDENQRKGEFVIIVQGAADQ”, for which the “soluble on expression in E. coli” value is listed as “not soluble”. Consider “MSLGLINPDFQTLPELFTSVFSHFKGQPDKAPIARKINGAYSPISYDSLAEDCRHFAAYLKERGIEPGDRVAILSENRPGWYLADIAILSLGATDVPLYPSLPPNQIEYILNNCSAKGIIVSNMLQLGKILSIWPKLPELNMVIVMNKLDEPVEDVIDLSQAKTEGKKVLEAKPWLLDGIKSNPDDVATLIYTSGTTGLPKGVMLTHRNICENVKSCSTVIRIDQTDSSLSFLPLSHAYERTGGYYLMFACGARINLAESVETISLNISEAKPTIIFTVPRLFDRMKASILKSVTSEGGVKEKIFFWAVSTGEKYHKQLATGKVSPLLAVQHNLADKLVYSKIRKKFGGKLRYFVSGGAALPQKTGEFFQSIGITILEGFGLTETSPVTNVNRPEKVKFGTVGLPVKNVEVKIAPDGEIMLKGPNIMKGYWKDEAASAEVLRDGWLYTGDIGEVDSEGYLKITDRKKHIIVTSGGKNIAPLQIENLILDSPYVDQAMIVGEKRPFLIALIVPDFLKLRDFAAEHQIKASSTKELINTKEVIEVYEKLLKSISRQLATHEKVRKFLLLEEPFSIENGMMTPTLKLKRKEITTKFSAEIDNLYNTLNMVYNTEGHHHHHH”, for which the “soluble on expression in E. coli” value is “soluble”. With “MSLITIGITGGIGSGKSVVSRILLTLGIPVYDSDSRAKWLNDHSPVVRQALTGLIGSDLYENGILRRDRLAAAIFSSGDLLEQVNGIIHPEVKKDFCQWRSECESDLCAIESAILFSSGFNSLCDTVIRVDAPEKIRQERAMARDGSSAETMRQRMLSQEREQSLAKAGADHTVLNAPPHLLVPQVVRIIETVRTKRPNPPDEGHHHHHH”, the “soluble on expression in E. coli” value is reported as “soluble”.
